Results from paper PMC12771579, “Distinct classes of gut bacterial molybdenum-dependent enzymes produce urolithins” (Proceedings of the National Academy of Sciences of the …, 2025).

Tests used:
Assay in all cases: continuous absorbance assay, methyl viologen, initial rates
Details in all cases: 200 µM methyl viologen, 100 µM sodium dithionite, 20 mM MOPS, 300 mM NaCl, pH 7.0, 30 °C, anaerobic
[1] = tested on: T1, Eadh3; type: biochemical, Ellagibacter isourolithinifaciens
T1 construct: recombinant, expressed in G. urolithinfaciens, purified; bis-MGD enzyme without signal peptide; tag only in SI
Source text: continuous absorbance assay, methyl viologen, initial rates on Eadh3 | Eadh3 converted urolithin C to isourolithin A via C8-OH dehydroxylation | urolithin M6 was metabolized more readily by Eadh2 than by Eadh3

[2] = tested on: T2, O=c1oc2c(O)c(O)ccc2c2c(O)c(O)c(O)cc12; type: biochemical, Gordonibacter urolithinfaciens
T2 construct: recombinant, cumate-inducible expression in G. urolithinfaciens (called native host), purified anaerobically; bis-MGD enzyme without signal peptide; tag only in SI
Source text: continuous absorbance assay, methyl viologen, initial rates on Eadh1 | Eadh1 (C4-OH dehydroxylation of urolithin M5 to urolithin M6) | can accept urolithin D as a substrate to produce urolithin C

[3] = tested on: T2, O=c1oc2c(O)c(O)ccc2c2c(O)c(O)c(O)cc12; type: biochemical, Gordonibacter urolithinfaciens; remark: listed apart in the source
[4] = tested on: T3, O=c1oc2cc(O)ccc2c2c(O)c(O)c(O)cc12; type: biochemical, Gordonibacter urolithinfaciens
T3 construct: recombinant, cumate-inducible expression in G. urolithinfaciens (called native host), purified anaerobically; bis-MGD enzyme without signal peptide; tag only in SI

Compound: O=c1oc2cc(O)ccc2c2c(O)c(O)c(O)cc12 [urolithin M6]
- Km [1]: 78.4 ± 10.6 µM

Compound: O=c1oc2cc(O)ccc2c2cc(O)c(O)cc12 [urolithin C]
- Km [1]: 19.9 ± 2.1 µM

Compound: Eadh1 (Gordonibacter sp. 28C)
- Km [2]: 11.8 ± 2.5 µM
- kcat [2]: 8.60 ± 0.49 s⁻¹

Compound: Eadh2 (Gordonibacter sp. 28C)
- Km [3]: 34.1 ± 6.4 µM
- kcat [3]: 0.42 ± 0.02 s⁻¹
- Km [4]: 13.8 ± 2.9 µM
- kcat [4]: 0.65 ± 0.03 s⁻¹
